Reference: US20260209325A1 (SCHOLAR ROCK, published 2026)
Changes are numbered by the printed parent chain. Where two headings read alike, the source gives them in different places. One block for each binder: values may come before it.

Legend:
human GDF-11 = human GDF-11 (human, UniProt O95390 299-407, limits assumed); assay: plate binding assay, OD 450 nm, one antibody concentration that is not given, on Hu-GDF-11 (method not described in the text)
mouse GDF-11 = mouse GDF-11 (mouse, UniProt Q9Z1W4 297-405, limits assumed); assay: plate binding assay, OD 450 nm, one antibody concentration that is not given, on Mu-GDF-11 (method not described in the text)
human pro-myostatin [1] = molecular target: T1, human pro-myostatin (human, UniProt O14793 24-375, biotinylated (in the SPR assay)); assay: plate binding assay, OD 450 nm, antibody titrated 0.0003 to 100 nM, panel 'Hu-Pro-GDF-8 Plate 3' (method not described in the text)
T1 construct: Disulfide-linked homodimer; also called proGDF8 (human)

murine pro-myostatin [2] = molecular target: T2, murine pro-myostatin (mouse, UniProt O08689 25-376, biotinylated (in the SPR assay)); assay: plate binding assay, OD 450 nm, antibody titrated 0.0003 to 100 nM, panel 'Mu-Pro-GDF-8 Plate 3' (method not described in the text)
T2 construct: also called proGDF8 (mouse); mouse pro-myostatin

cyno pro-myostatin [3] = molecular target: T3, cyno pro-myostatin (cynomolgus monkey, Biotinylated for capture in the SPR assay (site not stated). The native form is a disulfide-linked homodimer, partly furin-cleaved; one chain is given.); assay: plate binding assay, OD 450 nm, antibody titrated 0.0003 to 100 nM, panel 'Cyno-Pro-GDF-8 Plate 3' (method not described in the text)
T3 construct: also called proGDF8 (cynomolgus); cynomolgus monkey pro-myostatin

human pro-myostatin [4] = molecular target: T1, human pro-myostatin; assay: cell-based or functional assay
[5] = molecular target: T4, recombinant human latent myostatin (human, UniProt O14793 24-375, biotinylated (in the Octet pH assay only)); assay: cell-based or functional assay
human pro-myostatin [6] = molecular target: T1, human pro-myostatin; assay: SPR Biacore 8K, biotin-antigen captured
murine pro-myostatin [7] = molecular target: T2, murine pro-myostatin; assay: SPR Biacore 8K, biotin-antigen captured
cyno pro-myostatin [8] = molecular target: T3, cyno pro-myostatin; assay: SPR Biacore 8K, biotin-antigen captured
human pro-myostatin [9] = molecular target: T1, human pro-myostatin; assay: plate binding assay, OD 450 nm, antibody titrated 0.0003 to 100 nM, panel 'Hu-Pro-GDF-8 Plate 1' (method not described in the text)
murine pro-myostatin [10] = molecular target: T2, murine pro-myostatin; assay: plate binding assay, OD 450 nm, antibody titrated 0.0003 to 100 nM, panel 'Mu-Pro-GDF-8 Plate 1' (method not described in the text)
[11] = molecular target: T4, recombinant human latent myostatin; assay: cell-based or functional assay; remark: listed apart in the source
[12] = molecular target: T4, recombinant human latent myostatin; assay: cell-based or functional assay; remark: listed apart in the source
human pro-myostatin [13] = molecular target: T1, human pro-myostatin; assay: Ab KD, summary Table 11; method and antigen not stated there
[14] = molecular target: T4, recombinant human latent myostatin; assay: BLI (Octet Red384): streptavidin biosensors loaded with biotinylated human latent myostatin, antibody association 300 s, dissociation in PBS at pH 7.4 or pH 5.5
Procedure: (§1) Binding was performed at pH 7.4 and dissociation at pH 5.5 in an Octet Red384@assay. Streptavidin biosensors were baselined in 1x kinetics buffer (KB) (Sartorius) for one minute, then loaded with 100 nM biotinylated human latent myostatin for five minutes, followed by another baseline step of one minute in 1x KB. Binding of test antibodies was performed for five minutes and then dissociation was performed in PBS at either pH 7.4 or pH 5.5 for five minutes. Analysis was performed using a partial fit, in which full dissociation was projected. Kd at pH 5.5 was divided by Kd at pH 7.4 to calculate pH sensitivity.

[15] = molecular target: T4, recombinant human latent myostatin; assay: as above; remark: listed apart in the source
Procedure: as §1

cyno pro-myostatin [16] = molecular target: T3, cyno pro-myostatin; assay: plate binding assay, absorbance at 450 nm, antibody titrated 100 to about 0.002 nM, panel 'Cyno Pure Pro-GDF-8' (method not described in the text)
human pro-myostatin [17] = molecular target: T1, human pro-myostatin; assay: plate binding assay, absorbance at 450 nm, antibody titrated 100 to about 0.002 nM, panel 'Human Pure Pro-GDF-8' (method not described in the text)

Chain of mouse GDF-11 (Q9Z1W4 297-405 limits assumed): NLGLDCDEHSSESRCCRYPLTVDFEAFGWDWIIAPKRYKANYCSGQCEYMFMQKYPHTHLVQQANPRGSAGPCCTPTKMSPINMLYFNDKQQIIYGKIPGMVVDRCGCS
Chain of human GDF-11 (O95390 299-407 limits assumed): as the sequence (Q9Z1W4 297-405 limits assumed) above

binding result (human GDF-11): no binding
binding result (mouse GDF-11): no binding
binding result (human pro-myostatin [1]): binds
binding result (murine pro-myostatin [2]): binds
B1: Ab126 (antibody, human IgG4 S228P, kappa, V domains shown)
VH: EVQLVESGGGLVQPGGSLRLSCTASSFTFSNYAMDWVRQAPGKGLEWVSYISSDASTTYYADSVKGRFTISRDNAKNTLYLQMNSLRAEDTAVYYCARDGGYNPGIFDYWGQGTLVTVSS
VL: DIQMTQSPSSLSASVGDRVTITCQASQSIGRWLNWYQQKPGKAPKLLIYDASILQTGVPSRFSGSGSGTDFTFTISSLQPEDIATYYCQQSFTTPPLTFGGGTKVEIKR

binding result (human GDF-11): no binding
binding result (mouse GDF-11): no binding
binding result (human pro-myostatin [9]): binds
binding result (murine pro-myostatin [10]): binds
B4: Ab111 (antibody, human IgG4 S228P, kappa, V domains shown)
VH: QVQLVQSGAEVKKPGASVKVSCKVSGYTFTSNDIHWVRQAPGKGLEWMGGIFPIFGTTIYAQKFQGRVTMTEDTSTDTAYMELSSLKSEDTAVYYCAREGLGYDFDYWGQGTLVTVSS
VL: DIQMTQSPSSVSASVGDRVTITCRASQNIGNWLAWYQQKPGKAPKLLIYSASALQSGVPSRFSGSGSGTDFTLTISSLQPEDFANYYCQQSYGAPMYSFGGGTKVEIKR

binding result (human GDF-11): no binding
binding result (mouse GDF-11): no binding
EC50 (read off the curve) (human pro-myostatin [9]): ~0.2 nM
EC50 (read off the curve) (murine pro-myostatin [10]): ~0.4 nM
B5: Ab113 (antibody, human IgG4 S228P, kappa, V domains shown)
VH: QVQLVQSGAEVKKPGASVKVSCKVSGYLLTELSIHWVRQAPGKGLEWMGGIIPSFGTAIYAQKFQGRVTMTEDTSTDTAYMELSSLKSEDTAVYYCAISYSGFDLLPLDKWGQGTLVTVSS
VL: DIQMTQSPSSVSASVGDRVTITCRASQHISTWLAWYQQKPGKAPKLLIYYASSLQGGVPSRFSGSGSGTDFTLTISSLQPEDFANYYCLQTYTYPRTFGGGTKVEIKR

mTLL2 IC50 [12]: 0.144 nM
Kd (human pro-myostatin [13]): 0.926 nM
fold difference in off-rate (Kd at pH 5.5 / Kd at pH 7.4) [15]: 24 fold
B7: Ab132 (antibody, human IgG4 S228P, kappa, V domains shown)
VH: EVQLVESGGGLVQPGGSLRLSCAASGFTFSSYGMSWVRQAPGKGLELVASFTGSGGTYYPDSVKGRFTISRDNAKNSLYLQMNSLRAEDTAVYYCARDLLIRFLEWSHYYGMDVWGQGTTVTVSS
VL: DIVMTQSPLSLPVTPGEPASISCRSSQSLLHSSGHNFLHWYLQKPGQSPQLLIYEVSNRVSGVPDRFSGSGSGTDFTLKISRVEAEDVGVYYCQQQTQYPPTFGGGTKVEIKR

The remaining lines, values behind:

B2: Ab122 (antibody, human IgG4 S228P, kappa, V domains shown)
VH: QVTLRESGPALVKPTQTLTLTCTVSGGSLSSGGSYVNWIRQPPGKALEWLAMTDWDADNIVYNSALKSRLTISKDTSKNQVVLTMTNMDPVDTATYYCAHRQNVDSYGYWGDAFDIWGQGTMVTVSS
VL: DIVMTQSPDSLAVSLGERATINCKSSQSVLYSADNKNYLAWYQQKPGQPPKLLIYDASSLENGVPDRFSGSGSGTDFTLTISSLQAEDVAVYYCQQGHLFPYSFGGGTKVEIKR
notes: The light chain is printed ending ...NRGE, without the last C
EC50 (read off the curve) (human pro-myostatin [1]): ~0.5 nM
EC50 (read off the curve) (murine pro-myostatin [2]): ~0.6 nM
EC50 (read off the curve) (cyno pro-myostatin [3]): ~0.2 nM

B3: Ab127 (antibody, human IgG4 S228P, kappa, V domains shown)
VH: EVQLVESGGGLVQPGGSLRLSCTASGFTFGSYPMDWVRQAPGKGLEWVSYISGRGDVTYYADSVKGRFTISRDNAKNTLYLQMNSLRAEDTAVYYCAKVQSPSELLWFGELLPVDYWGQGTLVTVSS
VL: DIQMTQSPSSLSASVGDRVTITCQASQVIKTWLNWYQQKPGKAPKLLIYDASNLQRGVPSRFSGSGSGTDFTFTISSLQPEDIATYYCQQSASTPITFGGGTKVEIKR
IC50 (nM) Pro + Furin (human pro-myostatin [4]): 0.195 nM
IC50 (nM) Latent + mTLL2 [5]: 0.14 nM
Kd (human pro-myostatin [6]): 0.262 nM
koff (human pro-myostatin [6]): 0.000213 s⁻¹
kon (human pro-myostatin [6]): 813000 M⁻¹ s⁻¹
Kd (murine pro-myostatin [7]): 0.325 nM
koff (murine pro-myostatin [7]): 0.000265 s⁻¹
kon (murine pro-myostatin [7]): 815000 M⁻¹ s⁻¹
Kd (cyno pro-myostatin [8]): 0.327 nM
koff (cyno pro-myostatin [8]): 0.000269 s⁻¹
kon (cyno pro-myostatin [8]): 821000 M⁻¹ s⁻¹
binding result (human GDF-11): no binding
binding result (mouse GDF-11): no binding
EC50 (read off the curve) (human pro-myostatin [1]): ~0.4 nM
EC50 (read off the curve) (murine pro-myostatin [2]): ~0.6 nM
EC50 (read off the curve) (cyno pro-myostatin [3]): ~0.3 nM

B6: Ab109 (antibody, human IgG4 S228P, kappa, V domains shown)
VH: B7 VH
VL: B7 VL with Q94M
notes: human IgG4 in the EM experiment; also called Ab109 Human IgG4
IC50 of inhibition of myostatin activation by mTLL-2 (functional ELISA, FIG. 1A) [11]: 0.38 nM
IC50 of inhibition of myostatin activation by mTLL-2 (functional ELISA, FIG. 1B) [11]: 0.33 nM
IC50 (nM) Pro + Furin (human pro-myostatin [4]): 0.214 nM
IC50 (nM) Latent + mTLL2 [5]: 0.145 nM
mTLL2 IC50 [12]: 0.145 nM
Kd (human pro-myostatin [6]): 0.138 nM
kon (human pro-myostatin [6]): 6.62e+06 M⁻¹ s⁻¹
Kd (murine pro-myostatin [7]): 0.197 nM
koff (murine pro-myostatin [7]): 0.00134 s⁻¹
kon (murine pro-myostatin [7]): 6.81e+06 M⁻¹ s⁻¹
Kd (cyno pro-myostatin [8]): 0.128 nM
koff (cyno pro-myostatin [8]): 0.000925 s⁻¹
kon (cyno pro-myostatin [8]): 7.23e+06 M⁻¹ s⁻¹
Kd (human pro-myostatin [13]): 0.579 nM
fold difference in off-rate (Kd at pH 5.5 / Kd at pH 7.4) [14]: 18.4 fold
fold difference in off-rate (Kd at pH 5.5 / Kd at pH 7.4) [15]: 25 fold

B8: Ab106 (antibody, human IgG4 S228P, kappa, V domains shown)
VH: EVQLVESGGGLVQPGGSLRLSCAASGSAFSSYGMSWVRQAPGKGLELVASINSNGGSTYYPDSVKGRFTISRDNAKNSLYLQMNSLRAEDTAVYYCARDLLVRFLEWAGYYGMDVWGQGTTVTVSS
VL: B7 VL with Q94M
IC50 (nM) Pro + Furin (human pro-myostatin [4]): 0.233 nM
IC50 (nM) Latent + mTLL2 [5]: 0.163 nM
Kd (human pro-myostatin [6]): 0.112 nM
koff (human pro-myostatin [6]): 0.000224 s⁻¹
kon (human pro-myostatin [6]): 2e+06 M⁻¹ s⁻¹
Kd (murine pro-myostatin [7]): 0.162 nM
koff (murine pro-myostatin [7]): 0.000317 s⁻¹
kon (murine pro-myostatin [7]): 1.96e+06 M⁻¹ s⁻¹
Kd (cyno pro-myostatin [8]): 0.152 nM
koff (cyno pro-myostatin [8]): 0.000291 s⁻¹
kon (cyno pro-myostatin [8]): 1.91e+06 M⁻¹ s⁻¹
EC50 (read off the curve) (cyno pro-myostatin [16]): ~0.2 nM
EC50 (read off the curve) (human pro-myostatin [17]): ~0.2 nM
